System: TCF/LEF response elements
Experiment: TOPflash luciferase reporter system (TCF/LEF response elements) in UMR-106 cells
Type: cell-based, rat
Description: We transiently infected UMR-106 cells (a rat sarcoma derived cell line) with a luciferase reporter system TOPflash containing 8 TCF/LEF response elements placed in the promoter region of the luciferase reporter gene.
To investigate the effect of secreted signals from osteoclasts we collected conditioned medium from osteoclasts cultured either on bone or on plastic, and compared their ability to induce activation of cells transiently transfected with the TCF/LEF reporter system to that of non-conditioned osteoclast culture medium. The cells were then treated for 24 hours with either control compounds, vehicle or the different conditioned media, after which the cells were lysed and the Luciferase activity was measured by a […] assay.

Molecule	inhibition of TCF/LEF activation induced by conditioned medium from osteoclasts on bone (24 hours)	inhibition of TCF/LEF activation induced by signal from non-resorbing osteoclasts on plastic (24 hours)	inhibition of Wnt3A-induced TCF/LEF activation (activation by Wnt3A)	TCF/LEF activation (luciferase activity) (treated for 24 hours)
DKK1: Wnt inhibitor (protein, UniProt O94907 32-266, looked up) Dickkopf-related protein 1: TLNSVLNSNAIKNLPPPLGGAAGHPGSAVSAAPGILYPGGNKYQTIDNYQPYPCAEDEECGTDEYCASPTRGGDAGVQICLACRKRRKRCMRHAMCCPGNYCKNGICVSSDQNHFRGEIEETITESFGNDHSTLDGYSRRTTLSSKMYHTKGQEGSVCLRSSDCASGLCCARHFWSKICKPVLKEGQVCTKHRRKGSHGLEIFQRCYCGEGLSCRIQKDHHQASNSSRLHTCQRH	inhibited	again was inhibited	inhibits this activation	–
Wnt3A: positive control for the TCF/LEF luciferase reporter (protein, UniProt P56704 19-352, looked up) Protein Wnt-3a: SYPIWWSLAVGPQYSSLGSQPILCASIPGLVPKQLRFCRNYVEIMPSVAEGIKIGIQECQHQFRGRRWNCTTVHDSLAIFGPVLDKATRESAFVHAIASAGVAFAVTRSCAEGTAAICGCSSRHQGSPGKGWKWGGCSEDIEFGGMVSREFADARENRPDARSAMNRHNNEAGRQAIASHMHLKCKCHGLSGSCEVKTCWWSQPDFRAIGDFLKDKYDSASEMVVEKHRESRGWVETLRPRYTYFKVPTERDLVYYEASPNFCEPNPETGSFGTRDRTCNVSSHGIDGCDLLCCGRGHNARAERRREKCRCVFHWCCYVSCQECTRVYDVHTCK	–	–	–	induces a strong activation
